Residue numbers refer to the chain shown, from its start. Names and notes keep the numbering of the source.
What was measured:
[1] = molecular target: T1, extracellular domain of human ROR1 (human, UniProt Q01973 30-406); assay: BLI (Octet), IgG1, two-fold serial dilution 200-12.5 nM
T1 construct: bought protein; biotinylated in the bivalent assay format; also called Acro Cat. No. RO1-H522y
Text: To measure binding affinity in ROR binder discovery campaigns, the VL and VH domains identified in the phage screen described above were formatted into a bivalent monospecific native human full-length IgG1 architecture and immobilized to a biosensor on an Octet (Pall ForteBio) biolayer interferometer. Soluble ROR antigens, including the extracellular domains of ROR1 (Acro Cat. No. RO1-H522γ) and ROR2 (Acro Cat. No. R02-H52E5), as well as the individual ROR1 Frizzled (Acro Cat. No. RO1-H5222), Ig-like (Acro Cat. No. RO1-H5221), and Kringle (Acro Cat. No. RO1-H5223) domains, were then added to the system and binding measured.
The VH and VL sequences above were formatted into a bivalent monospecific native human full-length IgG1 architecture.

[2] = molecular target: T1, extracellular domain of human ROR1; assay: BLI, monovalent format, IgG on Fc biosensor
[3] = molecular target: T1, extracellular domain of human ROR1; assay: BLI (Octet QK384), monovalent format: antibody captured on Fc biosensor, untagged antigen as analyte
[4] = molecular target: T1, extracellular domain of human ROR1; assay: as above; remark: listed apart in the source
Description: (§1) More specifically, monovalent binding affinity analysis was performed using the Octet^QK 384 (ForteBio) using Fc biosensors. Unlabeled B-body™ is first bound to the Fc biosensor at a concentration to yield approximately 1 nm response (typically 10 to 50 nM protein). The biosensors are then equilibrated in 10× Kinetic Buffer (ForteBio) to establish a baseline. The untagged monomer of each antigen is contacted with the antibody-coated sensors at concentrations ranging from 50 nm to 0.75 nM. The association response and dissociation were monitored and recorded. The resulting Kₒₙ and Koff was fit using the Octet analysis software.
(§2) Next, the binding of the antibody to ROR1 and ROR2 was assessed using the monovalent and bivalent BLI binding assessments as described in Example 24.

[5] = molecular target: T2, extracellular domain of human ROR2 (human, UniProt Q01974 34-403); assay: as above
T2 construct: bought protein; biotinylated in the bivalent assay format; also called Acro Cat. No. RO2-H52E5
T2 sequence (Q01974 34-403 limits assumed): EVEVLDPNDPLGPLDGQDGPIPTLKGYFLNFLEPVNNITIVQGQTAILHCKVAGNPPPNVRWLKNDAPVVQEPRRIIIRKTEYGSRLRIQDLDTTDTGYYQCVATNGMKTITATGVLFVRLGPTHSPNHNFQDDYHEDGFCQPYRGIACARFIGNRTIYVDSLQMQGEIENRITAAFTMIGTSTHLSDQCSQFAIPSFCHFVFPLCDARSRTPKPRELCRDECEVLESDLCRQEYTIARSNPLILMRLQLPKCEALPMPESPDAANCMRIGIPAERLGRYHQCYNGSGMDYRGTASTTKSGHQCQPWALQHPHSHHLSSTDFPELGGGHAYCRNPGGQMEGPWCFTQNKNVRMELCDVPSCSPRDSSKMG
Description: as §1, §2

[6] = molecular target: T1, extracellular domain of human ROR1; assay: BLI, monovalent format
Description: as §1, §2

[7] = molecular target: T2, extracellular domain of human ROR2; assay: BLI, monovalent format
Description: as §1, §2

[8] = molecular target: T3, CD3 on a cynomolgus T cell line (cynomolgus); assay: flow cytometry on a cynomolgus T cell line, fluorescently labeled secondary antibody, MFI against antibody concentration
T3 construct: whole, on cells; also called cynomolgus CD3
T3 sequence (Q95LI5 22-198, chain 1 of 3): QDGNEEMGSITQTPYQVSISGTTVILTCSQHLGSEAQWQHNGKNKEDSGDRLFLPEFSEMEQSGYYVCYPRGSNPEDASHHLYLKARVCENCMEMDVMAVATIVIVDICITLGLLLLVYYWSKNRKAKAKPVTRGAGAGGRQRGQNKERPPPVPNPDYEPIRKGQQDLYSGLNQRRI
T3 sequence (Q95LI8 22-171, chain 2 of 3, further chain): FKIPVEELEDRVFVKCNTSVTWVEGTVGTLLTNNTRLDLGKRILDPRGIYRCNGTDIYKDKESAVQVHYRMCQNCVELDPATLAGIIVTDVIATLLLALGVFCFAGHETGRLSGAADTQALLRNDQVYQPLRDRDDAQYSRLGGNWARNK
T3 sequence (Q95LI7 23-181, chain 3 of 3, further chain): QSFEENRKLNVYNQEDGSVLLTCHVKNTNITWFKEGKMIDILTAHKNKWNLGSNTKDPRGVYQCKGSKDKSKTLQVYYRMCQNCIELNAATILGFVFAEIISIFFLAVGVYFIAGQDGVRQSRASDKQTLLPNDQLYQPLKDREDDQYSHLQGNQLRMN
Text: (§3) In this Example, the binding to human and cynomolgus CD3 was further characterized by assessing cell binding to Jurkat T cells, a Jurkat CD3 knock-out cell line, or a cynomolgus T cell line.

CD3 on Jurkat T cells = molecular target: T4, CD3 on Jurkat T cells (human, UniProt P07766 23-207; P04234 22-171); assay: flow cytometry on Jurkat T cells, fluorescently labeled secondary antibody, MFI against antibody concentration
T4 construct: also called human CD3; copies: 1 + 1
T4 sequence (P07766 23-207 limits assumed, chain 1 of 2): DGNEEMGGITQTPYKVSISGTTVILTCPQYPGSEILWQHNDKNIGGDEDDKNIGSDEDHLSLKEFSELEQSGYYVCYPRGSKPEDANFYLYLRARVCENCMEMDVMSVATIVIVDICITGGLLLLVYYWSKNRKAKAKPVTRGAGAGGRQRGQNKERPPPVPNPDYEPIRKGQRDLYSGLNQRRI
T4 sequence (P04234 22-171 limits assumed, chain 2 of 2): as the sequence (Q95LI8 22-171, chain 2 of 3, further chain) above, with V5I, K15N, V20I, T32S, N33D, N34I, A64T, N74S, L83V, R141H counted along it
Text: as §3

[9] = molecular target: T5, cynomolgus CD3 delta and epsilon heterodimer (cynomolgus, UniProt Q95LI5 22-117; Q95LI8 22-105); assay: BLI, B-body on Fc biosensor, antigen monomer 50 nM to 0.75 nM
T5 construct: untagged monomer of the antigen in solution
T5 sequence (Q95LI5 22-117, stated change not applied, chain 1 of 2): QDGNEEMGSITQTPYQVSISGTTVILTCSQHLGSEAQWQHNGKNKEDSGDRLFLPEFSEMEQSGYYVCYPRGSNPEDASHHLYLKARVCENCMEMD
T5 sequence (Q95LI8 22-105, stated change not applied, chain 2 of 2): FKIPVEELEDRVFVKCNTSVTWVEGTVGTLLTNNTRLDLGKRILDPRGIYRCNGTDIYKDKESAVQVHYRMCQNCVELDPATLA
Description: as §1

[10] = molecular target: T1, extracellular domain of human ROR1; assay: BLI (Octet QK384), monovalent format: B-body captured on Fc biosensor, untagged antigen as analyte
Description: as §1
(§4) Monovalent binding analysis was performed as described above and the antibody was captured with an Fc sensor and contacted with the indicated antigen for the association phase followed by a dissociation phase in buffer only.

[11] = molecular target: T1, extracellular domain of human ROR1; assay: BLI, bivalent format, biotinylated antigen on streptavidin biosensor, B-body 50 nM to 0.75 nM
Description: (§5) Bivalent binding analysis was performed using the Octet^QK 384 (ForteBio) using streptavidin biosensors. Biotinylated antigen was first bound to the streptavidin biosensor at a concentration to yield approximately 1 nm response (typically 10 to 50 nM biotinylated protein). The biosensors were then equilibrated in 10× Kinetic Buffer (ForteBio) to establish a baseline. The 1×2 B-body™ was contacted with the antigen-coated sensors at concentrations ranging from 50 nm to 0.75 nM. The association response and dissociation were monitored and recorded. The resulting Kₒₙ and Koff was fit using the Octet analysis software.

[12] = molecular target: T1, extracellular domain of human ROR1; assay: BLI, monovalent format, B-body on Fc biosensor, soluble antigen
Description: as §1, §4

[13] = molecular target: T1, extracellular domain of human ROR1; assay: BLI (Octet QK384), bivalent format: biotinylated antigen on streptavidin biosensor, 1x2 B-body as analyte
Description: as §5

[14] = molecular target: T5, cynomolgus CD3 delta and epsilon …; assay: BLI (Octet QK384), monovalent format: B-body captured on Fc biosensor, untagged antigen as analyte
Description: as §1

[15] = molecular target: T1, extracellular domain of human ROR1; assay: as above; remark: listed apart in the source
Description: as §1, §4, §2

[16] = molecular target: T2, extracellular domain of human ROR2; assay: as above
Description: as §1, §4, §2

[17] = molecular target: T1, extracellular domain of human ROR1; assay: BLI (Octet QK384), bivalent format: biotinylated antigen on streptavidin biosensor, 1x2 B-body as analyte; remark: listed apart in the source
Description: as §5, §2

[18] = molecular target: T2, extracellular domain of human ROR2; assay: as above
Description: as §5, §2

[19] = molecular target: T5, cynomolgus CD3 delta and epsilon …; assay: BLI, monovalent format, B-body on Fc biosensor
Description: as §1

[20] = molecular target: T1, extracellular domain of human ROR1; assay: BLI, bivalent format, biotinylated antigen on streptavidin biosensor
Description: as §5, §2

[21] = molecular target: T2, extracellular domain of human ROR2; assay: as above
Description: as §5, §2

CTLA4 = molecular target: T6, CTLA4 (UniProt P16410 36-161, limits assumed); assay: Octet; antigen immobilized, B-Body as analyte
T6 sequence (looked up): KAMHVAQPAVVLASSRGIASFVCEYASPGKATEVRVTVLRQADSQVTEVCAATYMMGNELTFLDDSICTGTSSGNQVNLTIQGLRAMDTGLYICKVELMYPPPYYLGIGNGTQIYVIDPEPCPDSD
Text: In each instance, the antigen is immobilized and the B-Body is the analyte.

T1 sequence (Q01973 30-406 limits assumed): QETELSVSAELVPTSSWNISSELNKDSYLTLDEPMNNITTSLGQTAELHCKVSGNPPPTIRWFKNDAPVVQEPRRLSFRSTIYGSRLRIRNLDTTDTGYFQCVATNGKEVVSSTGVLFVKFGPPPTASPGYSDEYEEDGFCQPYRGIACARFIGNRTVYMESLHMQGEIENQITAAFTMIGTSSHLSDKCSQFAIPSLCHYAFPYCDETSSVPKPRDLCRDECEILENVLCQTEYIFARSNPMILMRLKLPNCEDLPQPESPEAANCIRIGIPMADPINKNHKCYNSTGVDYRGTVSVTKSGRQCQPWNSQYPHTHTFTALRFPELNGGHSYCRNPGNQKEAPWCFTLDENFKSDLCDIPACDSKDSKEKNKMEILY

B1: I2A-27 IgG1 (antibody, V domains shown)
VH: EVQLVESGGGLVQPGGSLRLSCAASGFTFKGYYIHWVRQAPGKGLEWVAAIYPYGGSTDYADSVKGRFTISADTSKNTAYLQMNSLRAEDTAVYYCARVYIYGVFDYWGQGTLVTVSS
VL: DIQMTQSPSSLSASVGDRVTITCRASQSVSSAVAWYQQKPGKAPKLLIYSASSLYSGVPSRFSGSRSGTDFTLTISSLQPEDFATYYCQQYYSSPRTFGQGTKVEIKR
notes: bivalent monospecific native human full-length IgG1; the Domain F / Domain A entries end with AS / RT of the junction to the constant domain; also called clone I2-A27; I2-A27 IgG antibody
[1]
  Kd: 4.1 nM
  koff: 0.00185 s⁻¹
  kon: 511000 M⁻¹ s⁻¹
[2]
  Kd: 2.8 nM
[3]
  koff: 0.0026 s⁻¹
  kon: 940000 M⁻¹ s⁻¹

B2: I2A-10 D54E Y55Q IgG (antibody, V domains shown)
VH: EVQLVESGGGLVQPGGSLRLSCAASGFTFSSYFIHWVRQAPGKGLEWVAGIYPSEGYTSYADSVKGRFTISADTSKNTAYLQMNSLRAEDTAVYYCARYYVSGMDYWGQGTLVTVSS
VL: B1 VL with Y55Q, S93Y, S94Y, R96G
notes: bivalent monospecific IgG; the Domain F / Domain A entries end with AS / RT of the junction to the constant domain; also called I2-A10 D54E Y55Q IgG antibody
[4]
  koff: 0.00039 s⁻¹
  kon: 550000 M⁻¹ s⁻¹
[5]
  koff: < 1e-07 s⁻¹
  kon: 140000 M⁻¹ s⁻¹
[6]
  Kd: 0.7 nM
[7]
  Kd: < 1 pM

B3: SP34-89 humanized antibody (antibody, V domains shown)
VH: EVQLVESGGGLVQPGGSLRLSCAASGFTFNTYAMNWVRQAPGKGLEWVARIRSKYNNYATYYADSVKGRFSISRDDSKNTAYLQMNSLRAEDTAVYYCVRHGNFGNSYVSWFAYWGQGTLVTV
VL: QAVVTQEPSLTVSPGGTVTLTCRSSTGAVTTSNYANWVQQKPGQAPRGLIGGTNKRAPWTPARFSGSLLGGKAALTITGAQAEDEADYYCALWYSNLWVFGGGTKLTVL
[8]
  EC50 (read off the curve): ~700 pM
CD3 on Jurkat T cells
  EC50 (read off the curve): ~600 pM

B4: I2-A27 1×2 B-body™ bispecific antibody (ROR1xCD3) (bispecific antibody)
chain 1: DIQMTQSPSSLSASVGDRVTITCRASQSVSSAVAWYQQKPGKAPKLLIYSASSLYSGVPSRFSGSRSGTDFTLTISSLQPEDFATYYCQQYYSSPRTFGQGTKVEIKRTPREPQVYTLPPSRDELTKNQVSLKCLVKGFYPSDIAVEWESNGQPENNYKTTPPVLDSDGSFFLYSKLTVDKSRWQQGNVFSCSVMHEALHNHYTQKSLSLSKSCDKTHTCPPCPAPEAAGGPSVFLFPPKPKDTLMISRTPEVTCVVVDVSHEDPEVKFNWYVDGVEVHNAKTKPREEQYNSTYRVVSVLTVLHQDWLNGKEYKCKVSNKALKAPIEKTISKAKGQPREPQVCTLPPSREEMTKNQVSLSCAVKGFYPSDIAVEWESNGQPENNYKTTPPVLDSDGSFFLVSKLTVDKSRWQQGNVFSCSVMHEALHNHYTQKSLSLSPGK
chain 2: EVQLVESGGGLVQPGGSLRLSCAASGFTFKGYYIHWVRQAPGKGLEWVAAIYPYGGSTDYADSVKGRFTISADTSKNTAYLQMNSLRAEDTAVYYCARVYIYGVFDYWGQGTLVTVSSASPREPQVYTDPPSRDELTKNQVSLTCLVKGFYPSDIAVEWESNGQPENNYKTTPPVLDSDGSFFLYSKLTVDKSRWQQGNVFSCSVMHEALHNHYTQKSLSLSGEC
chain 3: not shown
chain 4: EVQLVESGGGLVQPGGSLRLSCAASGFTFNTYAMNWVRQAPGKGLEWVARIRSKYNNYATYYADSVKGRFSISRDDSKNTAYLQMNSLRAEDTAVYYCVRHGNFGNSYVSWFAYWGQGTLVTVSSASTKGPSVFPLAPSSKSTSGGTAALGCLVKDYFPEPVTVSWNSGALTSGVHTFPAVLQSSGLYSLSSVVTVPSSSLGTQTYICNVNHKPSNTKVDKKVEPPKSC
notes: two ROR sites, one SP34-89 CD3 site; chain 5 is the same as chain 2; also called I2A-27 BC1 1×2
[9]
  Kd: 3 nM
[10]
  koff: 0.0026 s⁻¹
  kon: 680000 M⁻¹ s⁻¹
[11]
  Kd: 0.71 nM
[12]
  Kd: 3.8 nM
[13]
  koff: 3.5e-05 s⁻¹
  kon: 490000 M⁻¹ s⁻¹
[14]
  koff: 0.00032 s⁻¹
  kon: 110000 M⁻¹ s⁻¹

B5: I2-A10 D54E Y55Q 1×2 B-body™ (ROR1/ROR2xCD3) (bispecific antibody)
chain 1: B4 chain 1 with Y55Q, S93Y, S94Y, R96G
chain 2: EVQLVESGGGLVQPGGSLRLSCAASGFTFSSYFIHWVRQAPGKGLEWVAGIYPSEGYTSYADSVKGRFTISADTSKNTAYLQMNSLRAEDTAVYYCARYYVSGMDYWGQGTLVTVSSASPREPQVYTDPPSRDELTKNQVSLTCLVKGFYPSDIAVEWESNGQPENNYKTTPPVLDSDGSFFLYSKLTVDKSRWQQGNVFSCSVMHEALHNHYTQKSLSLSGEC
chain 3: not shown
chain 4: B4 chain 4
notes: two ROR sites, one SP34-89 CD3 site; chain 5 is the same as chain 2; also called I2A-10 D54E Y55Q BC1 1×2
[15]
  koff: 0.00023 s⁻¹
  kon: 480000 M⁻¹ s⁻¹
[16]
  koff: < 1e-07 s⁻¹
  kon: 140000 M⁻¹ s⁻¹
[17]
  koff: 1.1e-05 s⁻¹
  kon: 510000 M⁻¹ s⁻¹
[18]
  Kd: 3.3 pM
  kon: 1.4e+06 M⁻¹ s⁻¹
[19]
  Kd: 3.5 nM
[14]
  koff: 0.00063 s⁻¹
  kon: 180000 M⁻¹ s⁻¹
[20]
  Kd: 0.021 nM
[21]
  Kd: 3 pM
[6]
  Kd: 0.46 nM
[7]
  Kd: < 1 pM

B6: bivalent bispecific B-Body “BC1” (bispecific antibody)
chain 1: not shown
chain 2: EVQLVESGGGLVQPGGSLRLSCAASGFTFSDYDIHWVRQAPGKGLEWVGDITPYDGTTNYADSVKGRFTISADTSKNTAYLQMNSLRAEDTAVYYCARLVGEIATGFDYWGQGTLVTVSSASPREPQVYTDPPSRDELTKNQVSLTCLVKGFYPSDIAVEWESNGQPENNYKTTPPVLDSDGSFFLYSKLTVDKSRWQQGNVFSCSVMHEALHNHYTQKSLSLSGEC
chain 3: not shown
chain 4: QVQLVESGGGVVQPGRSLRLDCKASGITFSNSGMHWVRQAPGKGLEWVAVIWYDGSKRYYADSVKGRFTISRDNSKNTLFLQMNSLRAEDTAVYYCATNDDYWGQGTLVTVSSASTKGPSVFPLAPSSKSTSGGTAALGCLVKDYFPEPVTVSWNSGALTSGVHTFPAVLQSSGLYSLSSVVTVPSSSLGTQTYICNVNHKPSNTKVDKKVEPPKSC
notes: A:F site for Antigen A, H:L site nivolumab variable domains (PD1)
CTLA4
  binding result: no binding

Source: US20240392002A1 (EXELIXIS, published 2024)
